Results from US20230331796A1.

Target: single chain C1q fusion polypeptide according to formula I (TAG-X1-C1qA-X2-C1qB-X3-C1qC-X4) (human)
Experiment: C1q affinity chromatography, immobilised fusion polypeptide, linear NaCl gradient in 20 mM HEPES pH 7.4

single chain C1q fusion polypeptide according to formula I (TAG-X1-C1qA-X2-C1qB-X3-C1qC-X4) (human), sequence (main, as listed by the source): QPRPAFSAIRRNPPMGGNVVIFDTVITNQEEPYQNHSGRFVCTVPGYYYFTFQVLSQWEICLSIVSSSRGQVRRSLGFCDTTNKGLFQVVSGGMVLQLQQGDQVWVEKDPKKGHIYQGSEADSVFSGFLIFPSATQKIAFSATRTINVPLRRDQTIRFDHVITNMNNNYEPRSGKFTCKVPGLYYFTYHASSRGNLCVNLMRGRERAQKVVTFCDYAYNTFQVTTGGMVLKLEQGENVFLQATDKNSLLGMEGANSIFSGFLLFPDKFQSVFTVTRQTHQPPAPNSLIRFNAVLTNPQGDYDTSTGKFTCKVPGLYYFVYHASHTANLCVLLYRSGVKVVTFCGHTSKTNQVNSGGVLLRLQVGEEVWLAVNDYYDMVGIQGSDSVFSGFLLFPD

retention time	Substance
39.1 min	Ustekinumab (antibody)
30.7 min	Briakinumab (antibody)
